This note sets out measurements from US20110201118.

Data set [1] has as its system TAL/GFP-R dTALEN (synthetic construct). The data set is described as follows: cell_activity. The settings on record: paired with TAL/GFP-L; 5/10 clones at 0.5 ug/well in HEK293T; 0/4 without TALEN.
Data set [2] concerns TAL/GFP-L dTALEN (synthetic construct). Nature of the data set: cell_activity. The settings on record: paired with TAL/GFP-R; 5/10 clones at 0.5 ug/well in HEK293T; 0/4 without TALEN.

As for eGFP target, TAL/GFP-R half-site, the activity (% clones with deletions) in data set [1] amounted to 50. As to eGFP target, TAL/GFP-L half-site, the activity (% clones with deletions) in data set [2] turned out to be 50.
